Reference: patent US20210380648, “DNA BINDING PROTEINS AND USES THEREOF” (Klogenix LLC, published 2021)

Experiments:
ZFP52 (VP64) = assay: cell_activity; Klotho ELISA in HK-2; conditions: tags: NLS, VP64, HA
Description: (§1) ELISA components were purchased from IBL and assays were performed according to the manufacturers instructions.
(§2) Klotho is largely expressed in the brain and kidney, and so further investigations were made using cell lines derived from those organs. The ZFPs were transfected into HK-2 cells and Klotho protein levels were measured.

ZFP52_VPR = assay: cell_activity; Klotho ELISA in HK-2; conditions: tags: NLS, VP64-p65-Rta, HA, V5, His
Description: as §1, §2

[1] = target: ZFP3_Egr1_site3_antisense (VP64); assay: cell_activity; Klotho protein ELISA in HK-2; also active in HEK293 4 kb promoter reporter; conditions: tags: NLS, VP64, HA
Description: as §1, §2

[2] = target: ZFP3_Egr1_site3_antisense_VPR; assay: cell_activity; Klotho ELISA in HK-2; conditions: tags: NLS, VP64-p65-Rta, HA, V5, His
Description: as §1, §2

ZFP3_Egr1_site3_antisense_VPR, sequence (chain, as listed by the source): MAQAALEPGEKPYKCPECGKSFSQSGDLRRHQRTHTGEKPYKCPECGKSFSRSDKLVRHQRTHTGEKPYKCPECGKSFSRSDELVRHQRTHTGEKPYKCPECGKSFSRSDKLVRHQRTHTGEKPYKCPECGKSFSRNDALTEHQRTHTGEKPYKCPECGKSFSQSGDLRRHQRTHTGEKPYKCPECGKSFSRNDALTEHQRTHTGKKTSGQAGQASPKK
ZFP52_VPR, sequence (chain, as listed by the source): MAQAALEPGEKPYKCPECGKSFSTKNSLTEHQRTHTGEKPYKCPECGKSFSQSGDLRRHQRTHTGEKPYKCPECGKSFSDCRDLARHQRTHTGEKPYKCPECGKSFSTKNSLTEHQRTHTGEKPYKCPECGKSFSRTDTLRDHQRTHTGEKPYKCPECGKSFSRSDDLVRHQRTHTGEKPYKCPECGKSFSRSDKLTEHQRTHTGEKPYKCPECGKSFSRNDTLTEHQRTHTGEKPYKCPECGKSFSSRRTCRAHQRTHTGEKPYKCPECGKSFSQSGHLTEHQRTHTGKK

| Binder | activity (ZFP52 (VP64)) [fold] | activity (ZFP52_VPR) [fold] | activity [1] [fold] | activity [2] [fold] |
| --- | --- | --- | --- | --- |
| ZFP52 target (dsDNA) DNA 1: CGACGTCCGCGGGCGACGCCTGCCGCACCT DNA 2: AGGTGCGGCAGGCGTCGCCCGCGGACGTCG | ~2 | ~5 | – | – |
| ZFP3_Egr1_site3 target (dsDNA) DNA 1: CTGGCACTGGGGGTGGGGGCA DNA 2: TGCCCCCACCCCCAGTGCCAG | – | – | ~3 | ~3 |
